Data set [1] concerns the target LTag131-627 V350E/P417D (Simian virus 40). Nature of the data set: SEC + other: SDS-PAGE gel quantification.
The data set “SEC” concerns the molecule itself. Nature of the data set: SEC.
The data set “crystal structure” deals with the molecule itself. In words: crystal structure.
In data set [2] the target is SV40 large T antigen LTag131-627 (Simian virus 40, UniProt P03070 131-627). In words: X-ray crystallography.

The stoichiometry N is a count of units in the complex or per binding partner. Regarding “LTag131-627 L286Dt/R567E (domain or fragment)”, in data set [1], the stoichiometry N was 1 mut1:mut2.

B1: SV40 large tumor antigen LTag131-627 (wild type) (domain or fragment)
chain: KVEDPKDFPSELLSFLSHAVFSNRTLACFAIYTTKEKAALLYKKIMEKYSVTFISRHNSYNHNILFFLTPHRHRVSAINNYAQKLCTFSFLICKGVNKEYLMYSALTRDPFSVIEESLPGGLKEHDFNPEEAEETKQVSWKLVTEYAMETKCDDVLLLLGMYLEFQYSFEMCLKCIKKEQPSHYKYHEKHYANAAIFADSKNQKTICQQAVDTVLAKKRVDSLQLTREQMLTNRFNDLLDRMDIMFGSTGSADIEEWMAGVAWLHCLLPKMDSVVYDFLKCMVYNIPKKRYWLFKGPIDSGKTTLAAALLELCGGKALNVNLPLDRLNFELGVAIDQFLVVFEDVKGTGGESRDLPSGQGINNLDNLRDYLDGSVKVNLEKKHLNKRTQIFPPGIVTMNEYSVPKTLQARFVKQIDFRPKDYLKHCLERSEFLLEKRIIQSGIALLLMLIWYRPVAEFAQSIQSRIVEWKERLDKEFSLSVYQKMKFNVAMGIGVLD
For B1, the entries for the “stoichiometry N” value in the data set “SEC” and in “crystal structure” were 6 and 2, respectively.

B2: EP-half ori 32 bp (dsDNA)
DNA 1: ACTACTTCTGGAATAGCTCAGAGGCCGAGGCG
DNA 2: CGCCTCGGCCTCTGAGCTATTCCAGAAGTAGT
B2: in data set [2], the binding result is given as “binds”.
